Measurements reported in patent publication US10450368 (DUKE UNIVERSITY, dated 2019).

Columns and labels:
[1] = biological target: T1, Scl-70 (UniProt P11387 1-765); assay: ELISA, LogAUC grade
T1 sequence: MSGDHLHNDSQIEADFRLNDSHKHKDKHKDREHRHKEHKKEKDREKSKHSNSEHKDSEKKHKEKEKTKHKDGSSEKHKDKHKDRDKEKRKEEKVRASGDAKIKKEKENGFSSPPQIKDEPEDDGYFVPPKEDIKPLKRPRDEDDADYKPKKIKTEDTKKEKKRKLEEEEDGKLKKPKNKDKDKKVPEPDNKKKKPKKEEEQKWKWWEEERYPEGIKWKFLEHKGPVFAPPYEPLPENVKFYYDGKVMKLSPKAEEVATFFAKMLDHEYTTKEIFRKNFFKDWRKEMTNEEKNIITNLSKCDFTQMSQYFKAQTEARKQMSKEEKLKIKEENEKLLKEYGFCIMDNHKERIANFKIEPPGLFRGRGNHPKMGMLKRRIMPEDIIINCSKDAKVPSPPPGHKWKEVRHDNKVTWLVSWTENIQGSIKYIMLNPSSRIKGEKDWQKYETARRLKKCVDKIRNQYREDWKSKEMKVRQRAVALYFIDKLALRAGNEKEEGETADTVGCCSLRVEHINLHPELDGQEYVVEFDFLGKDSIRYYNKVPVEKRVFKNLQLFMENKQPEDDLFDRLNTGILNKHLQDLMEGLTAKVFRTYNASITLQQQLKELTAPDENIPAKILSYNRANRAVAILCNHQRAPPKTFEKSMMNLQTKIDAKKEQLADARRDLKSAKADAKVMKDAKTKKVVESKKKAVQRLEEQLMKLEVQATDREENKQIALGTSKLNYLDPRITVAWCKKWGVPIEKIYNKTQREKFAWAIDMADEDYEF

[2] = biological target: T2, CH505w030.20D8gp120/293F; assay: ELISA
T2 construct: also called CH505w30.20 gp120

[3] = biological target: T3, CH505.w30.12D8gp120; assay: ELISA
T3 construct: also called CH505w30.12 gp120

[4] = biological target: CH505w136.B18D8gp120; assay: ELISA
[5] = biological target: T4, CH505w020.14D8gp120; assay: ELISA
T4 construct: also called CH505w20.14 gp120

[6] = biological target: CH0505_CON D7gp120/293i; assay: ELISA
[7] = biological target: T5, CH505.TF mutant gp120 M20 (HIV-1); assay: ELISA
T5 construct: domain: gp120

[8] = biological target: CH505.M7D8gp120/293F; assay: ELISA
[9] = biological target: CH505.M11D8gp120/293F; assay: ELISA
[10] = biological target: CH505.M21D8gp120/293F; assay: ELISA
[11] = biological target: T6, CH505.TF mutant gp120 M8 (HIV-1); assay: ELISA
T6 construct: domain: gp120

[12] = biological target: CH505.M10D8gp120; assay: ELISA
[13] = biological target: T7, CH505.TF mutant gp120 M6 (HIV-1); assay: ELISA
T7 construct: domain: gp120

[14] = biological target: CH505.M9D8gp120/293F; assay: ELISA
[15] = biological target: CH505.M19D8gp120; assay: ELISA
[16] = biological target: CH505.M5D8gp120293F; assay: ELISA
[17] = biological target: T8, SSB (UniProt P05455 1-408); assay: ELISA, LogAUC grade
T8 sequence: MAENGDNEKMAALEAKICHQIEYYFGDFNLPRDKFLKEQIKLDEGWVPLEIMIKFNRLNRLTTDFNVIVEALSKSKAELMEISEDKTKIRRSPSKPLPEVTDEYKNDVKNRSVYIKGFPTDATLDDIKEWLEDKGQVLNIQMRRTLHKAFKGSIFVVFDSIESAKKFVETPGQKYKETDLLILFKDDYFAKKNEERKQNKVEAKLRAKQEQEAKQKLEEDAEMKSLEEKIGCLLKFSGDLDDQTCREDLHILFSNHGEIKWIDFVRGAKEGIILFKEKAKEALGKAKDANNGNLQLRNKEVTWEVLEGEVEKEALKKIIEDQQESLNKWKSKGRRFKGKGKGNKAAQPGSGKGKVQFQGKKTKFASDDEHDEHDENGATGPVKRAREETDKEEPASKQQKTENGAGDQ

[18] = biological target: T9, Jo-1 (UniProt P12081 1-509); assay: ELISA, LogAUC grade
T9 sequence: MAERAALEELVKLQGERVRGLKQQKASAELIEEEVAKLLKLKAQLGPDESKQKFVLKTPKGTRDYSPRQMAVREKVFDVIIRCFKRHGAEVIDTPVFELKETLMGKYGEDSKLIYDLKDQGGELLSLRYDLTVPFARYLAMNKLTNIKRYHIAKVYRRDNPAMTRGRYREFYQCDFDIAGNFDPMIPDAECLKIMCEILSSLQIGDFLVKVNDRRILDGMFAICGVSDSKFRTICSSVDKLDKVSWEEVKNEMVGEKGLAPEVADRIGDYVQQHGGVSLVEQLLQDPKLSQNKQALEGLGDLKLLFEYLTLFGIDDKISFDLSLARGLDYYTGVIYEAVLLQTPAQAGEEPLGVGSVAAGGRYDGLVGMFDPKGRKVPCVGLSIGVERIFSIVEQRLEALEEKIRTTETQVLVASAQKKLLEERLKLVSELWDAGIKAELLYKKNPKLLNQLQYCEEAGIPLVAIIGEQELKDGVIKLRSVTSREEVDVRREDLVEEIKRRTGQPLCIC

[19] = biological target: T10, Centromere B (UniProt P07199 1-599); assay: ELISA, LogAUC grade
T10 construct: also called Cent B
T10 sequence: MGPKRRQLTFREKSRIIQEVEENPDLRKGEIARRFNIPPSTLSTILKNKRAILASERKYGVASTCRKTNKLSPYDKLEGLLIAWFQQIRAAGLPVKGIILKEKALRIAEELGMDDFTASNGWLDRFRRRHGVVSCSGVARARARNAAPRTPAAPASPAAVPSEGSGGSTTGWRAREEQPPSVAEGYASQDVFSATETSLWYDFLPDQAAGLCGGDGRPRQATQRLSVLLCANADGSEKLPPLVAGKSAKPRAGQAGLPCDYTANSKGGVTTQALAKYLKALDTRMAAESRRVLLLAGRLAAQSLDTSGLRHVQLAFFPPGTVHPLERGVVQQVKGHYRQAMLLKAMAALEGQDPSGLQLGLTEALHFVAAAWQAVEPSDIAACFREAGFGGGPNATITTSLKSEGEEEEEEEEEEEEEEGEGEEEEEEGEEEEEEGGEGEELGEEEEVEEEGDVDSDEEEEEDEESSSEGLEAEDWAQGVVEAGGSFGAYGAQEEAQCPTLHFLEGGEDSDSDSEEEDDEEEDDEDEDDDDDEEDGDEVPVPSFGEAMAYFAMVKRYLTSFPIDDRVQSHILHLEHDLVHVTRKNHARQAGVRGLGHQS

Binder | binding result [1] | LogAUC [2] | LogAUC [3] | LogAUC [4] | LogAUC [5] | LogAUC [6] | LogAUC [7] | LogAUC [8] | LogAUC [9] | LogAUC [10] | LogAUC [11] | LogAUC [12] | LogAUC [13] | LogAUC [14] | LogAUC [15] | LogAUC [16] | binding result [17] | binding result [18] | binding result [19]
CH235.13 (antibody, V domains shown) VH: QVQLVQSGGGVKRPGSTTTISCVASGYSFNDYYIHWVRQAPGQGLEVLGFIDPSNGRTNYAGAFGDRFSMYRDKSMETLYMDLRNLRSDDTAMYYCVRNVGTAGSLLHYDHWGTGSKIIVSS VL: EIVLTQSPATLSASPGERVTLTCRASRGVRNNVAWYQHNVGQSPRLLIYDASTRAPGIPARFSGSASGTEFTLAISSIQSEDFTLYYCHQYNNWWTFGQGTRVDIN | no binding | 5.41 | 1.05 | 1.76 | 6.14 | 6.23 | 0 | 0 | 5.35 | 0 | 0 | 6.38 | 6.07 | 0 | 2.89 | 6.53 |  |  | 
CH555 (antibody, V domains shown, also called CH235.10) VH: QVQLVQSGATVKKPRASVTLSCRTSGYNFIDYFIHWVRRAPGQRLEVMGYIDPSRGRPDYAPNFRDRVSLYRDTSMSIVYLDLRDLTPDDTAIYYCVRSEGTEGTVLHYDHWGPGTRVTVSP VL: EIVLTQSPDTLSASPGERVTLSCRASQSVGTKVAWYRHVRGQPPRLLIYGASTRAAGIPARFSGGGSGTNFTLIINNFQSEDFAEYLCQQYKSWWTFGQGTKVDNK | no binding | 5.62 | 0 | 5.54 | 5.63 | 7.23 | 0 | 0.09 | 5.05 | 0 | 0 | 1.06 | 5.67 | 0.07 | 0 | 2.62 |  |  | 
CH556 (antibody, V domains shown, also called CH235.11) VH: QVQLVQSGGTVKSPGTSVTLSCKTSGYNFIDYYIHWVRRAPGQRPELMGYIDPSHGRPDYEGKFRDRISLYRDTSTSVVYMDVRGLRLDDTALYYCVRGGGVEVSSNHYDHWGPGTMVFVSP VL: ETTLTQSPDTLSASPGERVTLSCRAAQSVGSQVAWFRHIRGQPPRLLISGASTRAAGVPARFSGSGSGTDFTLTISGMQSEDFAEYFCQQYHMWWTFGQGTRVDKN | no binding | 0.69 | 0 | 0.11 | 0.11 | 0.26 | 0.28 | 0 | 0.11 | 0.1 | 0.29 | 1.06 | 0.09 | 0.23 | 0.09 | 1.26 |  |  | 
CH235 UCA (antibody, V domains shown, also called unmutated common ancestor of the CH235 lineage) VH: QVQLVQSGAEVKKPGASVKVSCKASGYTFTSYYMHWVRQAPGQGLEWMGIINPSGGSTSYAQKFQGRVTMTRDTSTSTVYMELSSLRSEDTAVYYCARDVGTEGSLLHFDYWGQGTLVTVSS VL: not shown | no binding | 0 | 0 | 0 | 0 | 0 | 0 | 0 | 0 | 0 | 0 | 0 | 0 | 0 | 0 | 0.24 | no binding | no binding | no binding
